Measurements as given in patent US20210047373A1, “BETA BARREL POLYPEPTIDES AND METHODS FOR THEIR USE” (UNIVERSITY OF WASHINGTON, priority 2018, published 2021).
Changes are numbered by the printed parent chain. Where “and” joins values, the source holds several entries; their conditions need not be identical. Equal values may be shown once.

B1: mFAP2: SEQ ID NO:38; variant of b11L5F.1 with 6-residue insertion in the seventh β-turn (protein)
chain: MSRAAQLLPGTWQVTMTNEDGQTSQGQMHFQPRSPYTMDVVAQGTISDGRPISGYGKVTVKTPDTLDVDITYPSLGNIKAQGQITMDSPTQFKFDATTKGAGNFTGRLTGTLQRQE
modifications: (1)..(1) optionally absent
B2: mFAP2.2: SEQ ID NO:41 (protein)
chain: B1 chain with S53V
modifications: (1)..(1) optionally absent
B3: mFAP2.1: SEQ ID NO:40 (protein)
chain: B1 chain with P51T, S53V
modifications: (1)..(1) optionally absent
B4: mFAP1: SEQ ID NO:33; variant of b11L5F.2 (protein)
chain: MSRAAQLLPGTWQTTMTNEDGQTSQGQMHFQPRSPYTLDVVAQGTISDGRPISGYGKVTVKTDDTLDVDITYPSLGNIKVQGQVTMDSPTQFKFDATTSDGKKLTGTLQRQE
modifications: (1)..(1) optionally absent

How the values were obtained:
[1] = Photophysical characterization (absorbance, excitation, emission, extinction coefficient, quantum yield); assay type: physicochemical; settings: absolute
[2] = Fluorescence activation / brightness with DFHBI; assay type: biochemical; settings: normalized 0 to 1 across all three chromophores; average ± SD of two protein concentrations
Procedure: (§1) Fluorescence binding assay. Protein-activated DFHBI fluorescence signals were measured in 96-well plate format (Corning 3650) on a Synergy neo2 plate reader (BioTek, Inc) with λex=450 nm or 460 nm and λem=500 nm or 510 nm. Binding reactions were performed at […] in PBS pH7.4 buffer. Protein concentrations were determined by 280 nm absorbance as described above. DFHBI (Lucerna, Inc) were resuspended in DMSO as instructed to make 100 mM stock and diluted in PBS to 0.5-10 μM. Approximate emission spectra were recorded for active designs from 490 to 600 nm.
(§2) Table 3A-C. Brightness and chromophore affinities of selected mFAP variants. Fluorescence brightness measurements at 10 μM (top table) and 100 nM (middle table) chromophore concentrations were normalized from 0 to 1 across all three chromophores (DFHBI, DFHBI-1T, and DFHO), and the normalized values for two protein concentrations tested for each chromophore at each chromophore concentration were averaged and standard deviations of the average computed. Reported values are the normalized averages and standard deviations of the means for each chromophore concentration and each chromophore. Reported relative densitometry values are the relative densitometry values normalized from 0 to 1 and represent how well each design expresses relative to one another in Lemo21(DE3) E. coli cultures. Thermodynamic dissociation constants (bottom table) are obtained by non-linear least squares fitting of chromophore titrations (n=1) to a single binding site isotherm, and values reported with the standard deviation of the fit. Where the obtained Kd values are below the protein concentration tested, the Kd and standard deviation of the fit are reported in parentheses. Values with “N/D” were not determined.

[3] = Chromophore titration, fit to single binding site isotherm: DFHBI
Procedure: as §1, §2

[4] = tested on: E. coli, yeast, and mammalian cells; test: Confocal imaging of cells expressing mFAPs with DFHBI; assay type: cell-based; settings: 20 μM DFHBI
Procedure: To determine whether the designed DFHBI-binding fluorescence-activating proteins function in living cells, we imaged mFAP1- and mFAP2-DFHBI complexes in E. coli, yeast, and mammalian cells by confocal microscopy. […] The quantum yield of mFAP1 and mFAP2 in complex with DFHBI is 2.0% and 2.1% respectively (Table 2).
Confocal image acquisition. Mammalian cell imaging of mFAP1 and mFAP2 was performed in NIH3T3 cells (Flp-In-3T3, Thermo Fisher Scientific, Inc). NIH3T3 cells were cultured in high-glucose DMEM, 4 mM L-glutamine, 10% fetal bovine serum (FBS, Life Technologies, Inc) at 37 degrees Celsius, 5% CO2. Cells were plated at 4×10^4 cells/mL in 35 mm glass-bottomed dishes (Matek, Inc) that were coated with poly-D-lysine. Cells were transfected 24 hours after plating with Lipofectamine™ 3000 (Thermo Fisher Scientific, Inc) at a ratio of 3 μL reagent:1 μL DNA, according to manufacturer's instructions, with […] plasmids of mFAPs or mFAP fusions (1.25 μg mCherry™ plasmid was added to the cytosolic constructs as a transfection control). Right before imaging, cell media was replaced with FluorBrite™ DMEM (Thermo Fisher Scientific, Inc) media supplemented with GlutaMax™ (Thermo Fisher Scientific, Inc) and 10% v/v FBS, and 20 μM DFHBI. […] A white light laser of 488 was used to excite the DFHBI and detected by a HyD detector, over a range of 495-550 nm. […]

[5] = Chromophore titration, fit to single binding site isotherm: DFHBI-1T; settings: n=1 titration; ± SD of the fit; Table 3C
Procedure: as §2

[6] = Chromophore titration, fit to single binding site isotherm: DFHO; settings: n=1 titration; ± SD of the fit; Table 3C
Procedure: as §2

[7] = Fluorescence brightness with DFHBI-1T; assay type: biochemical; settings: normalized 0 to 1 across all three chromophores; average ± SD of two protein concentrations
Procedure: as §2

[8] = Fluorescence brightness with DFHO; assay type: biochemical; settings: normalized 0 to 1 across all three chromophores; average ± SD of two protein concentrations
Procedure: as §2

[9] = pH-dependent fluorescence of mFAP/DFHBI complexes; assay type: biochemical
Excerpt: FIG. 22: In vitro characterization of the pH-responsive mFAP_pH and comparison to the existing pHRed system and pH-unresponsive mFAP2b. (a-c) Chemical basis of pH-responsiveness in mFAP_pH. (a) Chemical structures of protonated tautomers and deprotonated resonance structures of DFHBI. […] The arrangement of intermolecular hydrogen bonds in the binding site of mFAP2b (c, binding pocket of the design model with the phenolate form of DFHBI) has low shape complementarity to the protonated DFHBI tautomers. The mutations W27M and W93F improve binding to the protonated DFHBI tautomers (b, model of mFAP_pH binding pocket with the phenolic form of DFHBI). […] (d) Normalized fluorescence excitation spectra of the mFAP_pH/DFHBI complex are shown for a pH titration from pH 3.63 to pH 8.38. (e) mFAP_pH normalized fluorescence emission spectra at pH 3.63 and pH 8.38. […] (f) Binding of mFAP_pH to both the phenolic and phenolate forms of DFHBI results in a high fluorescence ratio fold-change from low to high pH. (h, i) pH-dependent fluorescence of the mFAPpH/DFHBI complex compared to the previously described pHRed system. […] (i) Fluorescence ratios (Fratio) of unnormalized fluorescence measurements from panel (h) for mFAP_pH and pHRed. […]
We sought to further improve fluorescence of the complex at acidic and neutral pH and built a site-directed mutagenesis (SDM) library at 15 positions of mFAP2.1. […]

[10] = Circular dichroism, thermal and GuHCl denaturation; assay type: physicochemical; settings: CD in the absence of DFHBI, pH 2.93
Procedure: Circular dichroism (CD). Purified protein samples were prepared at 0.5 mg/ml in 20 mM Tris buffer (150 mM NaCl, pH8.0) or PBS buffer (25 mM phosphate, 150 mM NaCl, pH7.4). Wavelength scans from 195 nm to 260 nm were recorded at 25 degrees Celsius, 75 degrees Celsius, 95 degrees Celsius and cooling back to 25 degrees Celsius. Thermal denaturation was monitored at 220 nm or 226 nm from 25 degrees Celsius to 95 degrees Celsius. Near-UV wavelength scan from 240 nm to 320 nm and tryptophan fluorescence emission were recorded in the absence and presence of 5M guanidinium chloride (GuHCl). Chemical denaturation in GuHCl was monitored by both tryptophan fluorescence and near-UV CD signal at 285 nm. The concentration of the GuHCl stock solution was measured with a refractometer (Spectronic Instruments, Inc). Far-UV CD experiments were performed on an AVIV model 420 CD spectrometer (Aviv Biomedical, Inc). Near-UV CD and tryptophan fluorescence experiments were performed on a Jasco J-1500 CD spectrometer (Jasco, Inc). Protein concentrations were determined by 280 nm absorbance with a NanoDrop™spectrophotometer (ThermoScientific, Inc). Melting temperatures were estimated by smoothing the sparse data with a Savitsky-Golay filter of order 3 and approximating the smoothed data with a cubic spline to compute derivatives. Reported Tm values are the inflection points of the melting curves.

[11] = n=1 titration, ± SD of the fit, Table 3C, read-out: DFHBI Kd

Molecule	Quantum yield in complex with DFHBI [1]	Fluorescence brightness, 100 nM DFHBI [2]	Fluorescence brightness, 10 μM DFHBI [2]	Kd [3, 11]	Kd ([3]; read-out: Dissociation constant of DFHBI)	In vivo fluorescence activation [4]	Kd [5]	Kd [6]	Fluorescence brightness, 100 nM DFHBI-1T [7]	Fluorescence brightness, 10 μM DFHBI-1T [7]	Fluorescence brightness, 100 nM DFHO [8]	Fluorescence brightness, 10 μM DFHO [8]	Fluorescence ratio fold-change, higher than mFAP2.1 ([9]; across pH 3.66-7.36)	Stability at low pH [10]	Fluorescence in the presence of DFHBI at acidic pH ([9]; pH 3.66)	Kd ([3]; obtained Kd below the protein concentration tested, ± SD of the fit, read-out: DFHBI Kd, fit value in parentheses)
B1	2.1%	0.12 ± 0.0	0.14 ± 0.03	1.15 ± 0.16 µM	~0.2 µM and ~0.18 µM	showed in vivo fluorescence activation	43.2 ± 7.01 µM	22.7 ± 9.66 µM	0.15 ± 0.01	0.33 ± 0.04	0.01 ± 0.0	0.01 ± 0.0	–	–	–	–
B2	–	0.13 ± 0.0	0.17 ± 0.03	1.15 ± 0.16 µM	–	–	43.2 ± 7.01 µM	22.7 ± 9.66 µM	0.33 ± 0.02	0.55 ± 0.02	0.01 ± 0.0	0.01 ± 0.0	~1.3 fold	–	–	–
B3	–	0.13 ± 0.0	0.07 ± 0.02	–	–	–	–	–	0.34 ± 0.01	0.25 ± 0.01	0.01 ± 0.0	0.01 ± 0.0	–	improved stability	higher fluorescence	–
B4	2.0%	0.18 ± 0.0	0.13 ± 0.02	< 0.5 µM	–	showed in vivo fluorescence activation	10.8 ± 1 µM	7.8 ± 2.89 µM	0.01 ± 0.0	0.01 ± 0.0	0.01 ± 0.0	0.0 ± 0.0	–	–	–	0.496 µM
